Results taken from US20090123572.

T1: recombinant squamous cell carcinoma antigen 1 (SCCA-1), P29508
T1 chain: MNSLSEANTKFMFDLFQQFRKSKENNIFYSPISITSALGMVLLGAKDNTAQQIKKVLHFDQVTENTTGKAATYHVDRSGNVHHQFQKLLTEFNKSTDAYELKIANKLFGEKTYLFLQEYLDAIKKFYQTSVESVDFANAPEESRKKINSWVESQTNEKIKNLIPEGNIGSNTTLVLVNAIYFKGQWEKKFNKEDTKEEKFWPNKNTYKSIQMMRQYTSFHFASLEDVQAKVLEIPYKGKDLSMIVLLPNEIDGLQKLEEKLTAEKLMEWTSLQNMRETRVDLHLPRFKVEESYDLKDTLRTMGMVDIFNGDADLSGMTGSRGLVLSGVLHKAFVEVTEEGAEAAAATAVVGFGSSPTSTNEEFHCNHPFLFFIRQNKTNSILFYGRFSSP

T2: recombinant ICAD protein, O00273
T2 chain: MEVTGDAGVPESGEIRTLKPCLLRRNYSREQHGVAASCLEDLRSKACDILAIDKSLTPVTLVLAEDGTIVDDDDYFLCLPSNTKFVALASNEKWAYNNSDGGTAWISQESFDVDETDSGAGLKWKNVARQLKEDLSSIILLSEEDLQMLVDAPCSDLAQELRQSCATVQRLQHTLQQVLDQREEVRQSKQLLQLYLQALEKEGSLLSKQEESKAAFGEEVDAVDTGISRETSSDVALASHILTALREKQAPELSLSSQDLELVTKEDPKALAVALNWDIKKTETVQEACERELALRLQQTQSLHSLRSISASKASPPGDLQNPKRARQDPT


How the values were obtained:
[1] = target: T1, recombinant squamous cell carcinoma …
[2] = target: T2, recombinant ICAD protein, O00273

| Protein | enzyme activity of recombinant caspase incubated with SCCA-1 (synthetic caspase substrates) [1] | other results |
| --- | --- | --- |
| recombinant caspase-6 (protein) AFYKREMFDPAEKYKMDHRRRGIALIFNHERFFWHLTLPERRGTCADRDNLTRRFSDLGFEVKCFNDLKAEELLLKIHEVSTVSHADADCFVCVFLSHGEGNHIYAYDAKIEIQTLTGLFKGDKCHSLVGKPKIFIIQACRGNQHDVPVIPLDVVDNQTEKLDTNITEVDAASVYTLPAGADFLMCYSVAEGYYSHRETVNGSWYIQDLCEMLGKYGSSLEFTELLTLVNRKVSQRRVDFCKDPSAIGKKQVPCFASMLTKKLHFFPKSN | None of the caspase members (1 to 10) were affected with respect to enzyme activity when recombinant caspase was incubated with SCCA-1 |  |
| recombinant caspase-1 (protein) NPAMPTSSGSEGNVKLCSLEEAQRIWKQKSAEIYPIMDKSSRTRLALIICNEEFDSIPRRTGAEVDITGMTMLLQNLGYSVDVKKNLTASDMTTELEAFAHRPEHKTSDSTFLVFMSHGIREGICGKKHSEQVPDILQLNAIFNMLNTKNCPSLKDKPKVIIIQACRGDSPGVVWFKDSVGVSGNLSLPTTEEFEDDAIKKAHIEKDFIAFCSSTPDNVSWRHPTMGSVFIGRLIEHMQEYACSCDVEEIFRKVRFSFEQPDGRAQMPTTERVTLTRCFYLFPGH | None of the caspase members (1 to 10) were affected with respect to enzyme activity when recombinant caspase was incubated with SCCA-1 |  |
| recombinant caspase-4 (protein) QISPNKKAHPNMEAGPPESGESTDALKLCPHEEFLRLCKERAEEIYPIKERNNRTRLALIICNTEFDHLPPRNGADFDITGMKELLEGLDYSVDVEENLTARDMESALRAFATRPEHKSSDSTFLVLMSHGILEGICGTVHDEKKPDVLLYDTIFQIFNNRNCLSLKDKPKVIIVQACRGANRGELWVRDSPASLEVASSQSSENLEEDAVYKTHVEKDFIAFCSSTPHNVSWRDSTMGSIFITQLITCFQKYSWCCHLEEVFRKVQQSFETPRAKAQMPTIERLSMTRYFYLFPGN | None of the caspase members (1 to 10) were affected with respect to enzyme activity when recombinant caspase was incubated with SCCA-1 |  |
| recombinant caspase-2 (protein) GPVCLQVKPCTPEFYQTHFQLAYRLQSRPRGLALVLSNVHFTGEKELEFRSGGDVDHSTLVTLFKLLGYDVHVLCDQTAQEMQEKLQNFAQLPAHRVTDSCIVALLSHGVEGAIYGVDGKLLQLQEVFQLFDNANCPSLQNKPKMFFIQACRGDETDRGVDQQDGKNHAGSPGCEESDAGKEKLPKMRLPTRSDMICGYACLKGTAAMRNTKRGSWYIEALAQVFSERACDMHVADMLVKVNALIKDREGYAPGTEFHRCKEMSEYCSTLCRHLYLFPGHPPT | None of the caspase members (1 to 10) were affected with respect to enzyme activity when recombinant caspase was incubated with SCCA-1 |  |
| recombinant caspase-10 (protein) VKTFLEALPQESWQNKHAGSNGNRATNGAPSLVSRGMQGASANTLNSETSTKRAAVYRMNRNHRGLCVIVNNHSFTSLKDRQGTHKDAEILSHVFQWLGFTVHIHNNVTKVEMEMVLQKQKCNPAHADGDCFVFCILTHGRFGAVYSSDEALIPIREIMSHFTALQCPRLAEKPKLFFIQACQGEEIQPSVSIEADALNPEQAPTSLQDSIPAEADFLLGLATVPGYVSFRHVEEGSWYIQSLCNHLKKLVPRMLKFLEKTMEIRGRKRTVWGAKQISATSLPTAISAQTPRPPMRRWSSVS | None of the caspase members (1 to 10) were affected with respect to enzyme activity when recombinant caspase was incubated with SCCA-1 |  |
| recombinant caspase-5 (protein) DQKITSVKPLLQIEAGPPESAESTNILKLCPREEFLRLCKKNHDEIYPIKKREDRRRLALIICNTKFDHLPARNGAHYDIVGMKRLLQGLGYTVVDEKNLTARDMESVLRAFAARPEHKSSDSTFLVLMSHGILEGICGTAHKKKKPDVLLYDTIFQIFNNRNCLSLKDKPKVIIVQACRGEKHGELWVRDSPASLALISSQSSENLEADSVCKIHEEKDFIAFCSSTPHNVSWRDRTRGSIFITELITCFQKYSCCCHLMEIFRKVQKSFEVPQAKAQMPTIERATLTRDFYLFPGN | None of the caspase members (1 to 10) were affected with respect to enzyme activity when recombinant caspase was incubated with SCCA-1 |  |
| recombinant caspase-3 (protein) SGISLDNSYKMDYPEMGLCIIINNKNFHKSTGMTSRSGTDVDAANLRETFRNLKYEVRNKNDLTREEIVELMRDVSKEDHSKRSSFVCVLLSHGEEGIIFGTNGPVDLKKITNFFRGDRCRSLTGKPKLFIIQACRGTELDCGIETDSGVDDDMACHKIPVEADFLYAYSTAPGYYSWRNSKDGSWFIQSLCAMLKQYADKLEFMHILTRVNRKVATEFESFSFDATFHAKKQIPCIVSMLTKELYFYH | None of the caspase members (1 to 10) were affected with respect to enzyme activity when recombinant caspase was incubated with SCCA-1 | caspase-3 activity on the synthetic substrate DEVD-MCA or the natural substrate ICAD [1]: SCCA-1 did not inhibit caspase-3 activity using the synthetic substrate DEVD-MCA or the natural substrate ICAD. |
| recombinant caspase-9 (protein) GALESLRGNADLAYILSMEPCGHCLIINNVNFCRESGLRTRTGSNIDCEKLRRRFSSLHFMVEVKGDLTAKKMVLALLELAQQDHGALDCCVVVILSHGCQASHLQFPGAVYGTDGCPVSVEKIVNIFNGTSCPSLGGKPKLFFIQACGGEQKDHGFEVASTSPEDESPGSNPEPDATPFQEGLRTFDQLDAISSLPTPSDIFVSYSTFPGFVSWRDPKSGSWYVETLDDIFEQWAHSEDLQSLLLRVANAVSVKGIYKQMPGCFNFLRKKLFFKTS | None of the caspase members (1 to 10) were affected with respect to enzyme activity when recombinant caspase was incubated with SCCA-1 |  |
| recombinant caspase-7 (protein) AKPDRSSFVPSLFSKKKKNVTMRSIKTTRDRVPTYQYNMNFEKLGKCIIINNKNFDKVTGMGVRNGTDKDAEALFKCFRSLGFDVIVYNDCSCAKMQDLLKKASEEDHTNAACFACILLSHGEENVIYGKDGVTPIKDLTAHFRGDRCKTLLEKPKLFFIQACRGTELDDGIQADSGPINDTDANPRYKIPVEADFLFAYSTVPGYYSWRSPGRGSWFVQALCSILEEHGKDLEIMQILTRVNDRVARHFESQSDDPHFHEKKQIPCVVSMLTKELYFSQ | None of the caspase members (1 to 10) were affected with respect to enzyme activity when recombinant caspase was incubated with SCCA-1 |  |
| purified caspase-14 from human cornified cells (heterodimer of 17 KDa large subunit and 11 KDa small subunit) (protein) chain 1: SLEEEKYDMSGARLALILCVTKAREGSEEDLDALEHMFRQLRFESTMKRDPTAEQFQEELEKFQQAIDSREDPVSCAFVVLMAHGREGFLKGEDGEMVKLENLFEALNNKNCQALRAKPKVYIIQACRGEQRDPGETVGGD chain 2: KDSPQTIPTYTDALHVYSTVEGYIAYRHDQKGSCFIQTLVDVFTKRKGHILELLTEVTRRMAEAELVQEGKARKTNPEIQSTLRKRLYLQ |  | ICAD cleavage products (Western blot with FL331 antibody) [2]: Cleavage products were observed at 33 and 27 KDa.; decomposition of recombinant ICAD in the presence of kosmotropic salt (Western blot with anti-ICAD IgG) [2]: since the amount of intact ICAD protein decreases and two major decomposition products increase in the presence of kosmotropic salt, purified caspase-14 demonstrated limited decomposing action on ICAD; fragments formed from ICAD; sequence analysis of the cleavage sites [2]: caspase-14 formed fragments resembling 12 KDa and 35 KDa from ICAD. Sequence analysis indicated identical cleavage sites.; hydrolysis of recombinant ICAD in an ordinary caspase assay buffer (Western blot with anti-ICAD IgG) [2]: purified caspase-14 did not demonstrate any hydrolysis activity on ICAD |
| recombinant caspase-8 (protein) SESQTLDKVYQMKSKPRGYCLIINNHNFAKAREKVPKLHSIRDRNGTHLDAGALTTTFEELHFEIKPHDDCTVEQIYEILKIYQLMDHSNMDCFICCILSHGDKGIIYGTDGQEAPIYELTSQFTGLKCPSLAGKPKVFFIQACQGDNYQKGIPVETDSEEQPYLEMDLSSPQTRYIPDEADFLLGMATVNNCVSYRNPAEGTWYIQSLCQSLRERCPRGDDILTILTEVNYEVSNKDDKKNMGKQMPQPTFTLRKKLVFPSD | None of the caspase members (1 to 10) were affected with respect to enzyme activity when recombinant caspase was incubated with SCCA-1 |  |
